Laboratory results from patent publication US20190015483A1 (CSL BEHRING RECOMBINANT FACILITY, published 2019).

T1: recombinant Factor VIII (CSL627, rVIII-SingleChain) (Homo sapiens (Human), UniProt P00451 20-2351)
T1 construct: also called FVIII
T1 sequence: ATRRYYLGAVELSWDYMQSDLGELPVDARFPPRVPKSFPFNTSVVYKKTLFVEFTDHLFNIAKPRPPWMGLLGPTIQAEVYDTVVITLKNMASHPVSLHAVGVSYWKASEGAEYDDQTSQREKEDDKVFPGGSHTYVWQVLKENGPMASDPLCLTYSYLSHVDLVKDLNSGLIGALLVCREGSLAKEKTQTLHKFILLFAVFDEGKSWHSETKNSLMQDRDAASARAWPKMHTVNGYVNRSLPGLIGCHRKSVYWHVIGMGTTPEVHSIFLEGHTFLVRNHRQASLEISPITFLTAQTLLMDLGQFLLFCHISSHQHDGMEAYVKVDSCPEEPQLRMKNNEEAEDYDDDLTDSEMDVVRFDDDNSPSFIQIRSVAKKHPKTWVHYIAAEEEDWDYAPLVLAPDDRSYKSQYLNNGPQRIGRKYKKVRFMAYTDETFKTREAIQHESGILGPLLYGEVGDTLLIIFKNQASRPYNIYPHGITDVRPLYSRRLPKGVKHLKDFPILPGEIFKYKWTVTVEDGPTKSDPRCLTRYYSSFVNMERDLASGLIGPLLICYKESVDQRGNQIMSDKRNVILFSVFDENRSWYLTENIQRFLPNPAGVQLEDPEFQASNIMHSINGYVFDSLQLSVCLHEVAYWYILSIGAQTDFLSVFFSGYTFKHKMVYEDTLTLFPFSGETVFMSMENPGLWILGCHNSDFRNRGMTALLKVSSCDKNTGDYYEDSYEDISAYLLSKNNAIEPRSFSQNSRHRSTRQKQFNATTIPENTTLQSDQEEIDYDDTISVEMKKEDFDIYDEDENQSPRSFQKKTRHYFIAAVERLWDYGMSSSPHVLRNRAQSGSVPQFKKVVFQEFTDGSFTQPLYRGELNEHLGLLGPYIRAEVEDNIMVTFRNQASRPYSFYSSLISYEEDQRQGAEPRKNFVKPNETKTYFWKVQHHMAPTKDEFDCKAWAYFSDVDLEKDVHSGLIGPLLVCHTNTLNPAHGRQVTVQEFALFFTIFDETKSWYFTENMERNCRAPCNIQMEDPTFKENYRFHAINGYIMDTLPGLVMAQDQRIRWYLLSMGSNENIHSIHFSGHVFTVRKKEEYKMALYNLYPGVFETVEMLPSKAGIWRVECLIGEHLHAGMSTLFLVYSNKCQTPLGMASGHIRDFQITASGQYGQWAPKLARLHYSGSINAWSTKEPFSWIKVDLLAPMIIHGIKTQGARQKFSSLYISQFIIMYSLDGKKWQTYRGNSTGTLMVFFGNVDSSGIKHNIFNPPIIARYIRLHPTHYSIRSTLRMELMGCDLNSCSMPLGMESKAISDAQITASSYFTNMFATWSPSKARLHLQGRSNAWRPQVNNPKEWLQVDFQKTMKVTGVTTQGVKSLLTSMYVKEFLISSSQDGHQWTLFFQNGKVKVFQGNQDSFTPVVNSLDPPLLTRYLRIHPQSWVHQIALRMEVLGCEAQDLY


Molecular target: T1, recombinant Factor VIII (CSL627, …)
Assay: SPR, anti-His capture, FVIII injected, 37 C
Description: Binding kinetics were investigated by surface plasmon resonance using a Biacore 4000 biosensor at 37° C. Each mutant was captured from cell culture medium to a density of 40-150 RU on a CM-5 sensor chip pre-immobilised with anti-His antibody (14,000 RU). In an initial screening study, FVIII was injected over the captured mutants for 5 minutes at 1 nM and dissociation monitored for 5 minutes.
All sensorgrams were double referenced by subtraction of signals from a reference spot (containing only immobilised anti His antibody) and from a blank injection. Binding kinetics were determined by fitting the double referenced sensorgrams to a 1:1 kinetic model.

Binder | Kd [nM] | koff [s⁻¹] | kon [M⁻¹ s⁻¹]
Hu-vWF[764-1270]-8His S764P-L765E-S766I (other) PEICRPPMVKLVCPADNLRAEGLECTKTCQNYDLECMSMGCVSGCLCPPGMVRHENRCVALERCPCFHQGKEYAPGETVKIGCNTCVCRDRKWNCTDHVCDATCSTIGMAHYLTFDGLKYLFPGECQYVLVQDYCGSNPGTFRILVGNKGCSHPSVKCKKRVTILVEGGEIELFDGEVNVKRPMKDETHFEVVESGRYIILLLGKALSVVWDRHLSISVVLKQTYQEKVCGLCGNFDGIQNNDLTSSNLQVEEDPVDFGNSWKVSSQCADTRKVPLDSSPATCHNNIMKQTMVDSSCRILTSDVFQDCNKLVDPEPYLDVCIYDTCSCESIGDCACFCDTIAAYAHVCAQHGKVVTWRTATLCPQSCEERNLRENGYECEWRYNSCAPACQVTCQHPEPLACPVQCVEGCHAHCPPGKILDELLQTCVDPEDCPVCEVAGRRFASGKKVTLNPSDPEHCQICHCDVVNLTCEACQEPGGLVVPPTDAPVSPTTLYVEDISEPPLHDFHHHHHHHH | 53.6 | 0.055 | 1.03e+06
Hu-vWF[764-1270]-8His S764P-L765G-S766I (other) PGICRPPMVKLVCPADNLRAEGLECTKTCQNYDLECMSMGCVSGCLCPPGMVRHENRCVALERCPCFHQGKEYAPGETVKIGCNTCVCRDRKWNCTDHVCDATCSTIGMAHYLTFDGLKYLFPGECQYVLVQDYCGSNPGTFRILVGNKGCSHPSVKCKKRVTILVEGGEIELFDGEVNVKRPMKDETHFEVVESGRYIILLLGKALSVVWDRHLSISVVLKQTYQEKVCGLCGNFDGIQNNDLTSSNLQVEEDPVDFGNSWKVSSQCADTRKVPLDSSPATCHNNIMKQTMVDSSCRILTSDVFQDCNKLVDPEPYLDVCIYDTCSCESIGDCACFCDTIAAYAHVCAQHGKVVTWRTATLCPQSCEERNLRENGYECEWRYNSCAPACQVTCQHPEPLACPVQCVEGCHAHCPPGKILDELLQTCVDPEDCPVCEVAGRRFASGKKVTLNPSDPEHCQICHCDVVNLTCEACQEPGGLVVPPTDAPVSPTTLYVEDISEPPLHDFHHHHHHHH | 0.241 | 0.0122 | 5.04e+07
Hu-vWF[764-1270]-8His S764P-L765I-S766I (other) PIICRPPMVKLVCPADNLRAEGLECTKTCQNYDLECMSMGCVSGCLCPPGMVRHENRCVALERCPCFHQGKEYAPGETVKIGCNTCVCRDRKWNCTDHVCDATCSTIGMAHYLTFDGLKYLFPGECQYVLVQDYCGSNPGTFRILVGNKGCSHPSVKCKKRVTILVEGGEIELFDGEVNVKRPMKDETHFEVVESGRYIILLLGKALSVVWDRHLSISVVLKQTYQEKVCGLCGNFDGIQNNDLTSSNLQVEEDPVDFGNSWKVSSQCADTRKVPLDSSPATCHNNIMKQTMVDSSCRILTSDVFQDCNKLVDPEPYLDVCIYDTCSCESIGDCACFCDTIAAYAHVCAQHGKVVTWRTATLCPQSCEERNLRENGYECEWRYNSCAPACQVTCQHPEPLACPVQCVEGCHAHCPPGKILDELLQTCVDPEDCPVCEVAGRRFASGKKVTLNPSDPEHCQICHCDVVNLTCEACQEPGGLVVPPTDAPVSPTTLYVEDISEPPLHDFHHHHHHHH | 1.62 | 0.0103 | 6.34e+06
Hu-vWF[764-1270]-8His S764P-L765H-S766I (other) PHICRPPMVKLVCPADNLRAEGLECTKTCQNYDLECMSMGCVSGCLCPPGMVRHENRCVALERCPCFHQGKEYAPGETVKIGCNTCVCRDRKWNCTDHVCDATCSTIGMAHYLTFDGLKYLFPGECQYVLVQDYCGSNPGTFRILVGNKGCSHPSVKCKKRVTILVEGGEIELFDGEVNVKRPMKDETHFEVVESGRYIILLLGKALSVVWDRHLSISVVLKQTYQEKVCGLCGNFDGIQNNDLTSSNLQVEEDPVDFGNSWKVSSQCADTRKVPLDSSPATCHNNIMKQTMVDSSCRILTSDVFQDCNKLVDPEPYLDVCIYDTCSCESIGDCACFCDTIAAYAHVCAQHGKVVTWRTATLCPQSCEERNLRENGYECEWRYNSCAPACQVTCQHPEPLACPVQCVEGCHAHCPPGKILDELLQTCVDPEDCPVCEVAGRRFASGKKVTLNPSDPEHCQICHCDVVNLTCEACQEPGGLVVPPTDAPVSPTTLYVEDISEPPLHDFHHHHHHHH | 0.0424 | 6.6e-05 | 1.56e+06

Other lines, results leading:

Kd [nM] | koff [s⁻¹] | kon [M⁻¹ s⁻¹] | Binder
0.00241 | 0.000137 | 5.69e+07 | Hu-vWF[764-1270]-8His S764P-L765M-S766I (other) PMICRPPMVKLVCPADNLRAEGLECTKTCQNYDLECMSMGCVSGCLCPPGMVRHENRCVALERCPCFHQGKEYAPGETVKIGCNTCVCRDRKWNCTDHVCDATCSTIGMAHYLTFDGLKYLFPGECQYVLVQDYCGSNPGTFRILVGNKGCSHPSVKCKKRVTILVEGGEIELFDGEVNVKRPMKDETHFEVVESGRYIILLLGKALSVVWDRHLSISVVLKQTYQEKVCGLCGNFDGIQNNDLTSSNLQVEEDPVDFGNSWKVSSQCADTRKVPLDSSPATCHNNIMKQTMVDSSCRILTSDVFQDCNKLVDPEPYLDVCIYDTCSCESIGDCACFCDTIAAYAHVCAQHGKVVTWRTATLCPQSCEERNLRENGYECEWRYNSCAPACQVTCQHPEPLACPVQCVEGCHAHCPPGKILDELLQTCVDPEDCPVCEVAGRRFASGKKVTLNPSDPEHCQICHCDVVNLTCEACQEPGGLVVPPTDAPVSPTTLYVEDISEPPLHDFHHHHHHHH
0.0218 | 0.0015 | 6.88e+07 | Hu-vWF[764-1270]-8His S764P-L765K-S766I (other) PKICRPPMVKLVCPADNLRAEGLECTKTCQNYDLECMSMGCVSGCLCPPGMVRHENRCVALERCPCFHQGKEYAPGETVKIGCNTCVCRDRKWNCTDHVCDATCSTIGMAHYLTFDGLKYLFPGECQYVLVQDYCGSNPGTFRILVGNKGCSHPSVKCKKRVTILVEGGEIELFDGEVNVKRPMKDETHFEVVESGRYIILLLGKALSVVWDRHLSISVVLKQTYQEKVCGLCGNFDGIQNNDLTSSNLQVEEDPVDFGNSWKVSSQCADTRKVPLDSSPATCHNNIMKQTMVDSSCRILTSDVFQDCNKLVDPEPYLDVCIYDTCSCESIGDCACFCDTIAAYAHVCAQHGKVVTWRTATLCPQSCEERNLRENGYECEWRYNSCAPACQVTCQHPEPLACPVQCVEGCHAHCPPGKILDELLQTCVDPEDCPVCEVAGRRFASGKKVTLNPSDPEHCQICHCDVVNLTCEACQEPGGLVVPPTDAPVSPTTLYVEDISEPPLHDFHHHHHHHH
0.248 | 0.000286 | 1.15e+06 | Hu-vWF[764-1270]-8His S764P-L765Q-S766I (other) PQICRPPMVKLVCPADNLRAEGLECTKTCQNYDLECMSMGCVSGCLCPPGMVRHENRCVALERCPCFHQGKEYAPGETVKIGCNTCVCRDRKWNCTDHVCDATCSTIGMAHYLTFDGLKYLFPGECQYVLVQDYCGSNPGTFRILVGNKGCSHPSVKCKKRVTILVEGGEIELFDGEVNVKRPMKDETHFEVVESGRYIILLLGKALSVVWDRHLSISVVLKQTYQEKVCGLCGNFDGIQNNDLTSSNLQVEEDPVDFGNSWKVSSQCADTRKVPLDSSPATCHNNIMKQTMVDSSCRILTSDVFQDCNKLVDPEPYLDVCIYDTCSCESIGDCACFCDTIAAYAHVCAQHGKVVTWRTATLCPQSCEERNLRENGYECEWRYNSCAPACQVTCQHPEPLACPVQCVEGCHAHCPPGKILDELLQTCVDPEDCPVCEVAGRRFASGKKVTLNPSDPEHCQICHCDVVNLTCEACQEPGGLVVPPTDAPVSPTTLYVEDISEPPLHDFHHHHHHHH
0.218 | 0.0173 | 7.96e+07 | Hu-vWF[764-1270]-8His S764P-L765R-S766I (other) PRICRPPMVKLVCPADNLRAEGLECTKTCQNYDLECMSMGCVSGCLCPPGMVRHENRCVALERCPCFHQGKEYAPGETVKIGCNTCVCRDRKWNCTDHVCDATCSTIGMAHYLTFDGLKYLFPGECQYVLVQDYCGSNPGTFRILVGNKGCSHPSVKCKKRVTILVEGGEIELFDGEVNVKRPMKDETHFEVVESGRYIILLLGKALSVVWDRHLSISVVLKQTYQEKVCGLCGNFDGIQNNDLTSSNLQVEEDPVDFGNSWKVSSQCADTRKVPLDSSPATCHNNIMKQTMVDSSCRILTSDVFQDCNKLVDPEPYLDVCIYDTCSCESIGDCACFCDTIAAYAHVCAQHGKVVTWRTATLCPQSCEERNLRENGYECEWRYNSCAPACQVTCQHPEPLACPVQCVEGCHAHCPPGKILDELLQTCVDPEDCPVCEVAGRRFASGKKVTLNPSDPEHCQICHCDVVNLTCEACQEPGGLVVPPTDAPVSPTTLYVEDISEPPLHDFHHHHHHHH
